According to patent US8524227B2, “Anti-IL-TIF antibodies” (ZymoGenetics, Inc., priority 2002, dated 2013):

Tests used:
[1] = target: T1, IL-TIF (Homo sapiens, UniProt Q9GZX6); assay: Inhibition of IL-TIF-induced proliferation of BaF3/CRF2-4/zcytor11 cells by soluble receptors; format: cell-based; settings: 100 pg/ml IL-TIF
T1 sequence (Q9GZX6 13-179 limits assumed): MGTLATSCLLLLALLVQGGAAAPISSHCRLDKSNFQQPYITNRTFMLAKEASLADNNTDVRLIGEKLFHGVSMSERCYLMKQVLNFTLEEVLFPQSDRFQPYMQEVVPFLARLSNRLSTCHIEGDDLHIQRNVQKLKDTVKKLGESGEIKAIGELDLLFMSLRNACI
Experimental: BaF3/CRF2-4/zcytor11 cells described herein were spun down and washed in PBS 2 times to ensure the removal of the mIL-3, and then spun a third time and re-suspended in the complete media (RPMI 1640, 10% FBS, 1% GlutaMAX, 1% Sodium Pyruvate), but without mIL-3 (hereinafter referred to as “mIL-3 free media”). Cells were then counted in a hemocytometer. Cells were plated in a 96-well format at 5000 cells per well in a volume of 100 μl per well using the mIL-3 free media.
IL-TIF protein (SEQ ID NO:3) was diluted to 200 pg/ml in mIL-3 free media. Zcytor16-Fc4 fusion protein (described herein) was diluted to 1 μg/ml in the mIL-3 free/IL-TIF media on the top row of the plate, and then diluted serially 1:2 down the remaining 7 rows on the 96-well plate, leaving a volume of 100 μl in each well. This was then added to the 100 μl of cells, for a final IL-TIF concentration of 100 pg/ml in all wells, and final Zcytor16-Fc4 concentrations of approximately […], 0.016, and 0.008 μg/ml in a total assay volume of 200 μl. CRF2-4/zcytor11-Fc4 was diluted to 8 μg/ml in the mIL-3 free/IL-TIF media on the top row of the plate, and then diluted serially 1:2 down the remaining 7 rows on the 96-well plate, leaving a volume of 100 μl in each well. This was then added to the 100 μl of cells, for a final IL-TIF concentration of 100 pg/ml in all wells, and final CRF2-4/zcytor11-Fc4 concentrations of approximately […], 0.25, 0.125 and 0.063 μg/ml, in a total assay volume of 200 The assay plates were incubated at 37° C., 5% CO2 for 4 days at which time Alamar Blue (Accumed, Chicago, Ill.) was added at […]. Plates were again incubated at 37° C., 5% CO2 for 16 hours. Alamar Blue gives a fluourometric readout based on number of live cells, and is thus a direct measurement of cell proliferation in comparison to a negative control. Plates were read on the Wallac Victor 2 1420 Multilabel Counter (Wallac, Turku, Finland) at wavelengths 530 (Excitation) and 590 (Emmssion). […] IL-TIF alone stimulated the cells 13-fold over background.

[2] = target: T1, IL-TIF; assay: SAA induction by IL-TIF in mice, inhibition by zcytor16-Fc4; format: in vivo; settings: 3 μg IL-TIF IP with 20-100 ug zcytor16-Fc4 IP 15 minutes before
Experimental: To assess whether zcytor16 could inhibit the SAA induction by IL-TIF mice (female, C3H/HEJ, 8 weeks old; Jackson Labs, Bar Harbor, Me.) were divided into five groups of three animals each and treated by IP injection of proteins as shown in Table 15 below:
The zcytor16 injections preceded the IL-TIF injection by 15 minutes. Both protein injections were given by the intraperitoneal route. A blood sample was taken from each mouse prior to treatment, then at 2 and 6 hours after treatment. Serum was prepared from each of the samples for measurement of SAA and IL-TIF.
An ELISA was performed as described previously to determine the level of SAA in mice treated with IL-TIF and a soluble receptor for IL-TIF, zcytor16-Fc4 described herein.

[3] = LPS-induced endotoxemia mouse model; format: in vivo, mice
Experimental: Briefly, six month Balb/c (CRL) female mice were injected with 25 μg LPS (Sigma) in sterile PBS intraperitoneally (IP). Serum samples were collected at 0, 1, 4, 8, 16, 24, 48 and 72 hr from groups of 8 mice for each time point. Serum samples were assayed for inflammatory cytokine levels. IL-1b, IL-6, TNFa, IL-10 and serum amyloid A protein (SAA) levels were measured using commercial ELISA kits purchased from Biosource International (Camarillo, Calif.).
Body temperatures in a separate group of animals were monitored by surgically implanted telemetry devices over the course of the 72 hr experiment. Body temperatures in mice dropped maximally by 2° C. from 37.07° C. to 34.98° C. 30 minutes after LPS injection.
The ability of zcytor16 treatment to effect proinflammatory indicators induced with a single 25 μg LPS dose IP in mice was tested. All samples were analyzed for SAA, IL-TIF and circulating neutrophil counts. Subsets from each group were analyzed for particular cytokine levels (1 hour samples were screened for TNF alpha, 4 hour samples were analyzed for IL-6) Animals were sacrificed at indicated time points in Table 17 below and whole blood and serum were collected and aliquoted for analysis.
72 B1/6 female mice (CRL) were given a single IP dose of zcytor16 as described in Table 17, below. Control mice were C57B1/6 (CRL).
30 minutes later, they received another IP injection of 25 μg LPS (Sigma) in 100 μl, to initiate an endotoxemia cascade.
To assess whether zcytor16 could inhibit the SAA induction in the LPS-induced endotoxemia mouse model, mice were injected with Zcytor16, 30 minutes prior to LPS injection, as shown in Table 17 in Example 31C above.
An ELISA to determine SAA levels in the 4 hour and 8 hour samples was performed using the Mouse SAA Immunoassay Kit (BioSource International, California) following the manufacturer's directions.

B1: zcytor16-Fc4: soluble receptor for IL-TIF, zcytor16 fused to Fc4; IL-TIF antagonist (protein)
chain: TQSTHESLKPQRVQFQSRNFHNILQWQPGRALTGNSSVYFVQYKIYGQRQWKNKEDCWGTQELSCDLTSETSDIQEPYYGRVRAASAGSYSEWSMTPRFTPWWETKIDPPVMNITQVNGSLLVILHAPNLPYRYQKEKNVSIEDYYELLYRVFIINNSLEKEQKVYEGAHRAVEIEALTPHSSYCVVAEIYQPMLDRRSQRSEERCVEIPEPRSSDKTHTCPPCPAPEAEGAPSVFLFPPKPKDTLMISRTPEVTCVVVDVSHEDPEVKFNWYVDGVEVHNAKTKPREEQYNSTYRVVSVLTVLHQDWLNGKEYKCKVSNKALPSSIEKTISKAKGQPREPQVYTLPPSRDELTKNQVSLTCLVKGFYPSDIAVEWESNGQPENNYKTTPPVLDSDGSFFLYSKLTVDKSRWQQGNVFSCSVMHEALHNHYTQKSLSLSPGK
[1]
  concentrations completely inhibiting proliferation: 0.025 to 1 µg/mL
  concentrations partially inhibiting proliferation, lower end: ≥ 8 ng/mL
  inhibition of the proliferative effect of IL-TIF: strong dose-dependant inhibition
[2]
  level of SAA: reduction in the level of SAA induced by IL-TIF alone to background levels
[3]; 10 ug 30 minutes prior to LPS
  effect on SAA induction: did not have significant effect
[3]; 100 ug 30 minutes prior to LPS, 4 hr and 8 hr
  reduction of the SAA induction: about 50%
[3]; 1 hr time point
  neutrophil count in circulation: reduced neutrophil count
[3]; 4 hour, 100 μg or 10 μg
  SAA levels relative to PBS injected mice: dose-dependant, statistically significant reduction
[3]; 8 hour, 100m
  SAA levels relative to PBS injected mice: statistically significant reduction
[3]; mouse, in vivo
  TNF-alpha and IL-6 level: no significant change
